Columns and labels:
[1] = target: T1, human soluble FLT3L (recombinant huFLT3L) (human, UniProt P49771 27-184); assay: cell-based or functional assay
T1 sequence (looked up): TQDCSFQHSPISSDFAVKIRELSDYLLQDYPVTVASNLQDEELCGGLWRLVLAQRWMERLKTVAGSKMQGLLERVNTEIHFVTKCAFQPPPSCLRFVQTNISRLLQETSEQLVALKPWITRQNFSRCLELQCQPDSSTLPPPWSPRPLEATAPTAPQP

[2] = target: cynomolgus monkey soluble FLT3L (cynomolgus monkey); assay: cell-based or functional assay
[3] = target: T1, human soluble FLT3L (recombinant …); assay: cell-based or functional assay; remark: listed apart in the source
[4] = target: T2, recombinant human stem cell factor (SCF) (human, UniProt P21583 26-189); assay: ELISA on coated recombinant human SCF
T2 construct: also called huSCF; KIT-ligand
T2 sequence (P21583 26-189 limits assumed): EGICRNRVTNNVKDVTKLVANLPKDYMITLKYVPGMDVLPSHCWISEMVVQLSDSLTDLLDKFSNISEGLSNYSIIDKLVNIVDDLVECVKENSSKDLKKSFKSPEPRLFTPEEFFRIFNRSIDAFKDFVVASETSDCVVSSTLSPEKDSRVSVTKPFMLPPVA
Description: (§1) To test this, an ELISA plate was coated with 2 µg of recombinant human SCF or CSF1. After washing, the plate was blocked with 3% milk in Tris-Phosphate Buffered Saline (TPBS) and lead antibodies were added in serial (×2) dilution, starting at 50 µg/ml. After incubation, unbound antibody was removed by washing and bound antibody was detected using anti-human IgG-HRP in combination with TMB substrate for color development. Commercially available goat anti-SCF pAb and mouse anti-CSF1 mAb were used as positive binding controls.

[5] = target: T3, recombinant human colony stimulating factor 1 (CSF1) (human, UniProt P09603 33-190, limits assumed); assay: ELISA on coated recombinant human CSF1
T3 construct: also called huCSF1; huCSF
T3 sequence (looked up): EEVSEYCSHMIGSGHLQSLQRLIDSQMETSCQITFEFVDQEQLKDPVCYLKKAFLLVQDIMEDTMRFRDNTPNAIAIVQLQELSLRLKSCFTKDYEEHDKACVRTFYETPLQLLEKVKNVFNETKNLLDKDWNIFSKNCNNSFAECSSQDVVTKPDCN
Description: as §1

[6] = target: T4, cynomolgus monkey FLT3L on CHO cells (cynomolgus monkey); assay: flow cytometry on CHO cells expressing full-length cyno FLT3L, PE anti-hu IgG
T4 construct: whole, on cells; also called cell surface cyno FLT3L
Description: (§2) Consistent with this, cell surface binding to human, cyno, and mouse FLT3L was evaluated by transfecting Chinese hamster ovary (CHO) cells with the respective full-length protein for each species. Candidate clones were incubated with FLT3L-expressing cell lines for 1 hour at 4° C. before being washed twice to remove unbound antibody. Cells were then incubated with PE-labeled goat anti-hu IgG secondary detection pAb to quantitate bound antibody which was measured by flow cytometric analysis of PE signal. The huFLT3-Fc construct, on a hu IgG backbone, was used as a positive control reagent for FLT3L expression as it cross reacts with cyno and mouse, in addition to human ligand.
(§3) As differences were apparent in the degree of receptor occupancy for each clone, both EC50 and max occupancy were noted (expressed as percent relative to FLT3-Fc) and taken into account in the final evaluation. Results are shown in Table 4 for human, cyno, and mouse FLT3L expressed in CHO cells.

mouse FLT3L on CHO cells = target: T5, mouse FLT3L on CHO cells (mouse, UniProt P49772 27-232); assay: flow cytometry on CHO cells expressing mouse FLT3L, anti-hu IgG-PE detection
T5 construct: whole, on cells; also called cell surface mouse FLT3L
T5 sequence (looked up): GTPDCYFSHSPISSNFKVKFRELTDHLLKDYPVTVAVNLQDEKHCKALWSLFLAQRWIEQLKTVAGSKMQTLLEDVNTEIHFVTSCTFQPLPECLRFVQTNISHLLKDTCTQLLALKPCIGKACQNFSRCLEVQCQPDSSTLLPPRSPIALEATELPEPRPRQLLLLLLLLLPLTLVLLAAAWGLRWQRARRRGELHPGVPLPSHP
Description: as §2

mouse soluble FLT3L = target: T6, mouse soluble FLT3L (mouse, UniProt P49772 27-189); assay: inhibition of FLT3 downregulation on RS4;11 cells by soluble mouse FLT3L (N/A in Table 3)
T6 construct: extracellular domain; also called mouse sFLT3L; muFLT3L
T6 sequence (looked up): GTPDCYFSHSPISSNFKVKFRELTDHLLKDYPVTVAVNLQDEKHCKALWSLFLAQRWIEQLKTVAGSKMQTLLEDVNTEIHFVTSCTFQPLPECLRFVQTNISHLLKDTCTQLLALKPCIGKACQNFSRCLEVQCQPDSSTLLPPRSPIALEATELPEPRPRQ
Description: Screening assay conditions were further refined to determine ideal cell culture conditions for evaluating anti-FLT3L candidate clones. Final conditions were: 50,000 RS4;11 cells per well incubated with 96 pM rhuFLT3L with or without anti-FLT3L mAb candidate clones in complete Roswell Park Memorial Institute (RPMI) media with one percent bovine serum albumin (BSA) for 2 hours in an humidified incubator set at 37° C., 5% CO2. Subsequent downregulation of FLT3 expression was determined by flow cytometry as measured either as raw MFI or % downregulation. […] (FIG. 3A). Assay efficacy was confirmed using a commercially available mouse anti-huFLT3L antibody control (MAB608, R&D Systems) (FIG. 3B). Due to the cross-species reactivity of FLT3 with its ligand, this assay was effective for testing clones against human, cyno, and rodent FLT3L, despite being a human cell line. For mouse FLT3L, the EC80 was 36 pM.
Upon ligation of FLT3L to FLT3, the receptor dimerizes, autophosphorylates, and propagates a signaling cascade once internalized. This process, measured by FLT3 downregulation, can be inhibited by antibodies that bind FLT3L. Thus, lead candidates were tested for their ability to inhibit FLT3 downregulation on RS4;11 cells by binding human, mouse, or cynomolgus monkey (cyno) soluble FLT3L (sFLT3L). […] FLT3 expression on RS4;11 cells was determined using flow cytometry and reported as MFI.

[7] = target: T7, human FLT3L on the cell surface (human, UniProt P49771 27-235); assay: flow cytometry on CHO cells expressing full-length human FLT3L, PE anti-hu IgG; CHO cells transfected with full-length human FLT3L, PE anti-hu IgG
T7 construct: whole, on cells; The assay field of each row says which cells carried it; also called cell-surface FLT3L; huFLT3L-expressing CHO cells
T7 sequence (looked up): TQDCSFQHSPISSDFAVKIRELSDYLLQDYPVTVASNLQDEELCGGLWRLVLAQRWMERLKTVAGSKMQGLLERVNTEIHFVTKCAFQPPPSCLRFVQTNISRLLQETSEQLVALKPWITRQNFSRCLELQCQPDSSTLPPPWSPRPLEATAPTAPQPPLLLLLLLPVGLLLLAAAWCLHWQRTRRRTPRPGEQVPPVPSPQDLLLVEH
Description: as §2, §3

[8] = target: T7, human FLT3L on the cell surface; assay: flow cytometry on CHO cells expressing full-length human FLT3L, PE anti-hu IgG; CHO cells transfected with full-length human FLT3L; maximum occupancy relative to FLT3-Fc
Description: as §2, §3

B1: CAT5D9 antibody (IgG1 TM format) (antibody, V domains shown)
VH: QVQLVQSGAEVKKPGSSVKVSCKISGGTFSSYALSWVRQAPGQGLEWMGGIIPVFRTASYAQKFQGRVTITVDESASTGYIELSSLKSEDTATYYCASNNYVWGSYRFWGQGTTVTVSS
VL: NFMLTQPHSVSESPGKTVTISCTRTSGNIAGYFVQWYQQRPGSSPTTVIYEDYQRPSGVPDRFSGSIDRSSNSASLTISGLKPDDEADYYCQSYDDTSQGVFGAGTKVTVLG
notes: also called clone 5D9; parental 5D9
In the case of B1, the “IC50 (nM), inhibition of FLT3 downregulation on RS4;11 cells” value [1] is reported as 385 nM, the “IC50 (nM), inhibition of FLT3 downregulation on RS4;11 cells” value [2] is reported as 564 nM and the “IC50 (nM) against 0.476 nM FLT3L, ERK phosphorylation in CD133+ stem cells” value [3] is reported as 187 nM. For the same binder, the “IC50 (nM) against 0.476 nM FLT3L, MEK phosphorylation in CD133+ stem cells” value [3] was 181 nM, the binding result [4] was “no binding (tested: about 0.3 uM)” and the binding result [5] was “no binding (tested: about 0.3 uM)”. For the same binder, the EC50 [6] was 1.1 nM, the “maximum occupancy (% relative to FLT3-Fc)” value [6] was 100% and the binding result (mouse FLT3L on CHO cells) was “no binding (tested: x = -7.2 (x axis without title or unit))”. The binding result (mouse soluble FLT3L) was “no binding”, the EC50 [7] was 0.157 nM and the “maximum occupancy (% relative to FLT3-Fc)” value [8] was 40%.
